Assay results reported in US20220073635A1 (ALLIGATOR BIOSCIENCE, published 2022).

T1: EpCAM-Fc (Sino hEpCAM_Fc #10694-H02H) (human, UniProt P16422 24-265)
T1 construct: Bought protein, called dimeric; also called dimeric antigen EpCAM-Fc; not shown: Fc part
T1 sequence (looked up): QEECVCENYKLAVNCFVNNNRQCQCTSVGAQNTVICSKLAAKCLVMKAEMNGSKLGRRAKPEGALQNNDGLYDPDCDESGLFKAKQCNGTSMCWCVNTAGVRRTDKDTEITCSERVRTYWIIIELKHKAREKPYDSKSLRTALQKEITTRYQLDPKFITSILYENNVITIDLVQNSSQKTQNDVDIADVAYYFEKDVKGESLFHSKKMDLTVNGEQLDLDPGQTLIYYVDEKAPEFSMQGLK

T2: hEpCAM (R&D Systems #9277-EP) (human, UniProt P16422 24-265)
T2 construct: Bought protein, monomeric; also called human EpCAM; monomeric antigen EpCAM-his; not shown: His tag
T2 sequence (looked up): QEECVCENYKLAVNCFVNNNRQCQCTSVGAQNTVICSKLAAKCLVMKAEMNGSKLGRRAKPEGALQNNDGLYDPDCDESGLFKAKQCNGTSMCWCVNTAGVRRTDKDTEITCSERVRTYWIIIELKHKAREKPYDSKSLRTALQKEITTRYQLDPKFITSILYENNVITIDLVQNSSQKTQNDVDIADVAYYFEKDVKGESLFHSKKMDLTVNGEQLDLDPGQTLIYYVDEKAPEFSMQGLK

T3: human EpCAM expressed on cells (human, UniProt P16422 24-314)
T3 construct: whole, on cells; also called EpCAM-transfected CHO cells; CHO-EpCAM
T3 sequence (looked up): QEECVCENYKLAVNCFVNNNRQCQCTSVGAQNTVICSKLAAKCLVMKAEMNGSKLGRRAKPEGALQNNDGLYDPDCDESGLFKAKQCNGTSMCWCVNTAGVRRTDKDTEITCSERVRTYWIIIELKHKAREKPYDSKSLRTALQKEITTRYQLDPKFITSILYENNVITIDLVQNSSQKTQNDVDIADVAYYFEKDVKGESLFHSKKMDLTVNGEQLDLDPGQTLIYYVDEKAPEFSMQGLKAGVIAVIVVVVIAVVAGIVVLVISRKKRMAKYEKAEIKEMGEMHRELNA


How the values were obtained:
[1] = molecular target: T1, EpCAM-Fc (Sino hEpCAM_Fc #10694-H02H); test: Octet BLI, Assay 3: EpCAM-Fc coupled to AR2G sensor, bsAb in solution, 1:1 fit
Protocol: (§1) Kinetic measurements were performed using the Octet RED96 platform (ForteBlo).
Antigen was coupled to Amine reactive Second generation sensors (Dip and Read Amine reactive Second-Generation (AR2G) Biosensors (Part no #18-5092 (tray)) at antigen concentrations of 0.4, 1.5, 0.25 or 0.5 μg/mL. BsAb (serially diluted ½ in 1× Kinetic buffer (ForteBio) with start concentrations of 20, 15, 10 or 25 nM) were analysed for binding to antigen-coupled sensors. The association was followed for 300 seconds and the dissociation in 1× Kinetic buffer for 300 seconds. Sensor tips were regenerated using 10 mM glycine, pH 2.2. Data generated were referenced by subtracting a parallel buffer blank, the baseline was aligned with the y-axis, inter-step correlation by alignment against dissociation was performed and the data were smoothed by a Savitzky-Golay filter in the data analysis software (v.9.0.0.14). The processed data were fitted using a 1:1 Langmuir binding model with X2 as a measurement of fitting accuracy.

[2] = molecular target: T1, EpCAM-Fc (Sino hEpCAM_Fc #10694-H02H); test: Octet BLI, Assay 1: bsAb on FAB2G sensor, dimeric EpCAM-Fc in solution, 1:1 fit
Protocol: as §1
(§2) BsAb at 1.0 or 1.5 ug/ml where coupled to anti-human Fab-CH1 2nd generation (FAB2G) biosensors (Part no #18-5125 (tray)). Antigens were serially diluted % in 1× Kinetic buffer (ForteBio) to 100 nM, 50 nM, 25 nM, 12.5 nM, 6.25 nM, 3.125 nM, 1.56 nM or 0 nM. The association was followed for 300 seconds and the dissociation in 1× Kinetic buffer for 300 seconds. Sensor tips were regenerated using 10 mM glycine, pH 1.5. Data generated were referenced by subtracting a parallel buffer blank, the baseline was aligned with the y-axis, inter-step correlation by alignment against dissociation was performed and the data were smoothed by a Savitzky-Golay filter in the data analysis software (v.9.0.0.14). The processed data were fitted using a 1:1 Langmuir binding model with X2 as a measurement of fitting accuracy.

[3] = molecular target: T2, hEpCAM (R&D Systems #9277-EP); test: Octet BLI, Assay 2: bsAb on FAB2G sensor, monomeric EpCAM-his in solution, 1:1 fit
Protocol: as §1, §2

[4] = molecular target: T3, human EpCAM expressed on cells; test: flow cytometry, biotinylated antibody titrated on EpCAM-transfected and control CHO cells, streptavidin detection
Excerpt: The human EpCAM gene was cloned into pcDNA3.1, and the vector was subsequently stably transfected into CHO cells. Control CHO cells were stably transfected with and empty pcDNA3.1 vector. […] Binding of biotinylated antibodies was detected with fluorochrome-conjugated streptavidin and analysed using flow cytometry.

[5] = molecular target: T4, CD40 on human peripheral blood mononuclear cells (human, UniProt P25942 21-277); test: flow cytometry, biotinylated antibody titrated on human PBMC (B cells, monocytes, T cells, NK cells gated), streptavidin detection
T4 construct: whole, on cells; also called CD40+ cell populations among PBMC (B cells, monocytes)
Excerpt: Binding of biotinylated antibodies was detected with fluorochrome-conjugated streptavidin and analysed using flow cytometry.

[6] = molecular target: T5, biotinylated hCD40 (504-030 from Ancell) (human, UniProt P25942 21-193, biotinylated); test: dual ELISA, bsAb captured on plate-coated hEpCAM, detected with biotinylated hCD40 and streptavidin-HRP
T5 construct: Detection reagent of the dual ELISA
Protocol: Plates were coated with 0.5 μg/mL hEpCAM (R&D Systems #9277-EP) in PBS over night at 4° C. After washing in PBS/0.05% Tween 20 (PBST), the plates were blocked with PBS/0.2% BSA for at least 30 minutes at room temperature before being washed again. Samples serially diluted from 50 nM in PBS/0.02% BSA were then added and allowed to bind for at least 1 hour at room temperature. […] Dual antigen-complexed bsAb were detected with HRP-labelled streptavidin. SuperSignal Pico Luminescent was used as substrate and luminescence signals were measured using Fluostar Optima.

T5 sequence (P25942 21-193 limits assumed): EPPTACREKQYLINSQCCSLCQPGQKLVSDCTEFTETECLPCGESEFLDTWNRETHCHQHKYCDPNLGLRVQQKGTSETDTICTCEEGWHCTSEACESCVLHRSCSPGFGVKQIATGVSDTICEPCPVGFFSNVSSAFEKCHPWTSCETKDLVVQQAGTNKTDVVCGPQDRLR
T4 sequence (P25942 21-277): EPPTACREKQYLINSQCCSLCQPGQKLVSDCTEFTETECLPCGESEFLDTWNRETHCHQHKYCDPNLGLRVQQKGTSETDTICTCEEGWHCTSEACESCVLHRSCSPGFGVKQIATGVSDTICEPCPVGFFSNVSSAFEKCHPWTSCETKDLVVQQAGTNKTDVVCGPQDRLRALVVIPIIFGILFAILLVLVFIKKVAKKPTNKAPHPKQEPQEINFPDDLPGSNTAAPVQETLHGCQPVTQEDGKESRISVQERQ

Binder | Kd [1] | koff [1] | kon [1] | Kd [2] | koff [2] | kon [2] | Kd [3] | koff [3] | kon [3] | binding result [4] | binding result [5] | binding result [6]
1132-3174.R (bispecific antibody) chain 1: not shown chain 2: ELVMTQSPSSLTVTAGEKVTMSCKSSQSLLNSGNQKNYLTWYQRKPGQPPKLLIYWASTRESGVPDRFTGSGSGTDFTLTISSVQAEDLAVYYCQNDYSYPLTFGAGTKLEIK chain 3: DIQMTQSPSSLSASVGDRVTITCRASQSISSYLNWYQEKPGKAPKLLIYAASSLQSGVPSRFSGSGSGTDFTLTISSLQPEDFATYYCQQYGRNPPTFGQGTKLEIKRTVAAPSVFIFPPSDEQLKSGTASVVCYLNNFYPREAKVQWKVDNALQSGNSQESVTEQDSKDSTYSLWSTLTLSKADYEKHKVYACEVTHQGLSSPVTKSFNRGEC chain 4: EVQLLEQSGAELVRPGTSVKISCKASGYAFTNYWLGWVKERPGHGLEWIGDIFPGSGNIHYNEKFKGKATLTADKSSSTAYMQLSSLTFEDSAVYFCARLRNWDEPMDYWGQGTTVTVSSASTKGPSVFPLAPSSKSTSGGTAALGCLVKDYFPEPVTVSWNSGALTSGVHTFPAVLQSSGLYSLSSVVEVPSSSLGTQTYICNVNHKPSNTKVDKKVEPKSC | 8 nM | 0.001 s⁻¹ | 100000 M⁻¹ s⁻¹ |  |  |  |  |  |  |  |  | 
1132-005025.M (bispecific antibody, also called CD40-EpCAM bispecific antibody in the Morrison format) VH: EVQLLESGGGLVQPGGSLRLSCAASGFTFSSYAMSWVRQAPGKGLEWVSGIGSYGGGTYYADSVKGRFTISRDNSKNTLYLQMNSLRAEDTAVYYCARYVNFGMDYWGQGTLVTVSS VL: DIQMTQSPSSLSASVGDRVTITCRASQSISSYLNWYQQKPGKAPKLLIYAASSLQSGVPSRFSGSGSGTDFTLTISSLQPEDFATYYCQQYGRNPPTFGQGTKLEIK scFv: not shown |  |  |  | 4 nM | 0.001 s⁻¹ | 300000 M⁻¹ s⁻¹ | 300 nM | 0.01 s⁻¹ | 30000 M⁻¹ s⁻¹ |  |  | 
1132-3188.M (bispecific antibody, V domains shown, also called CD40-EpCAM bispecific antibody in the Morrison format; 3188 = 4D5MOCB = BM1) VH 1: EVQLLESGGGLVQPGGSLRLSCAASGFTFSSYAMSWVRQAPGKGLEWVSGIGSYGGGTYYADSVKGRFTISRDNSKNTLYLQMNSLRAEDTAVYYCARYVNFGMDYWGQGTLVTVSS VL 1: DIQMTQSPSSLSASVGDRVTITCRASQSISSYLNWYQQKPGKAPKLLIYAASSLQSGVPSRFSGSGSGTDFTLTISSLQPEDFATYYCQQYGRNPPTFGQGTKLEIK VH 2: EVQLVQSGPGLVQPGGSVRISCAASGYTFTNYGMNWVKQAPGKGLEWMGWINTYTGESTYADSFKGRFTFSLDTSASAAYLQINSLRAEDTAVYYCARFAIKGDYWGQGTLLTVSS VL 2: DIQMTQSPSSLSASVGDRVTITCRSTKSLLHSNGITYLYWYQQKPGKAPKLLIYQMSNLASGVPSRFSSSGSGTDFTLTISSLQPEDFATYYCAQNLEIPRTFGQGTKVELK |  |  |  | < 0.001 nM | < 1e-07 s⁻¹ | 300000 M⁻¹ s⁻¹ | 30 nM | 0.004 s⁻¹ | 100000 M⁻¹ s⁻¹ |  |  | 
1132-005038.M (bispecific antibody, also called CD40-EpCAM bispecific antibody in the Morrison format) VH: EVQLLESGGGLVQPGGSLRLSCAASGFTFSSYAMSWVRQAPGKGLEWVSGIGSYGGGTYYADSVKGRFTISRDNSKNTLYLQMNSLRAEDTAVYYCARYVNFGMDYWGQGTLVTVSS VL: DIQMTQSPSSLSASVGDRVTITCRASQSISSYLNWYQQKPGKAPKLLIYAASSLQSGVPSRFSGSGSGTDFTLTISSLQPEDFATYYCQQYGRNPPTFGQGTKLEIK scFv: not shown |  |  |  | 6 nM | 0.002 s⁻¹ | 300000 M⁻¹ s⁻¹ | 1000 nM | 0.01 s⁻¹ | 8000 M⁻¹ s⁻¹ |  |  | 
1132.m2 (antibody, V domains shown, also called LALA-mutated agonistic monoclonal CD40 antibody) VH: EVQLLESGGGLVQPGGSLRLSCAASGFTFSSYAMSWVRQAPGKGLEWVSGIGSYGGGTYYADSVKGRFTISRDNSKNTLYLQMNSLRAEDTAVYYCARYVNFGMDYWGQGTLVTVSS VL: DIQMTQSPSSLSASVGDRVTITCRASQSISSYLNWYQQKPGKAPKLLIYAASSLQSGVPSRFSGSGSGTDFTLTISSLQPEDFATYYCQQYGRNPPTFGQGTKLEIK |  |  |  |  |  |  |  |  |  | no binding | binds | 
1132-3174.M (bispecific antibody, V domains shown, also called CD40-EpCAM bispecific antibody in the Morrison format) VH 1: EVQLLESGGGLVQPGGSLRLSCAASGFTFSSYAMSWVRQAPGKGLEWVSGIGSYGGGTYYADSVKGRFTISRDNSKNTLYLQMNSLRAEDTAVYYCARYVNFGMDYWGQGTLVTVSS VL 1: DIQMTQSPSSLSASVGDRVTITCRASQSISSYLNWYQQKPGKAPKLLIYAASSLQSGVPSRFSGSGSGTDFTLTISSLQPEDFATYYCQQYGRNPPTFGQGTKLEIK VH 2: EVQLLEQSGAELVRPGTSVKISCKASGYAFTNYWLGWVKQRPGHGLEWIGDIFPGSGNIHYNEKFKGKATLTADKSSSTAYMQLSSLTFEDSAVYFCARLRNWDEPMDYWGQGTTVTVSS VL 2: ELVMTQSPSSLTVTAGEKVTMSCKSSQSLLNSGNQKNYLTWYQQKPGQPPKLLIYWASTRESGVPDRFTGSGSGTDFTLTISSVQAEDLAVYYCQNDYSYPLTFGAGTKLEIK |  |  |  | 0.5 nM | 8e-05 s⁻¹ | 200000 M⁻¹ s⁻¹ | 500 nM | 0.01 s⁻¹ | 20000 M⁻¹ s⁻¹ |  |  | binds
